Measured values published in patent US20230062308A1, “TREATMENT OF CK8 POSITIVE CANCERS IN RELATION WITH K-RAS GENE STATUS” (INTERNATIONAL - DRUG - DEVELOPMENT - BIOTECH, priority 2017, published 2023).

How the values were obtained:
[1] = test system: Human HAN larynx cell line BICR18; test: In vivo tumour growth, HAN CDX model (larynx cell line BICR18); conditions: BICR18 s.c. in SCID mice; HzR022 (D-A10) 10 mg/kg i.p. BIW × 3; cisplatin 2.5 mg/kg i.p. QW × 3
Protocol: Human HAN larynx cell line BICR18 was subcutaneously injected in SCID mice, with a concentration of 1.10^6 cells per injection (200 μL). Mice were randomized when the tumours reached a mean volume of about 100 mm^3 for the 9 groups (total 45 mice). […] The endpoint was defined by animal ethics as a tumour diameter of >18 mm, significant weight loss or alteration of animal well-being. In order to assess the effectiveness of the compounds on tumourigenesis, tumour volume was measured two times a week. The size of the primary tumours were measured using calipers and the tumour volume (TV) was extrapolated to a sphere using the formula TV= 4/3π×r^3, by calculating the mean radius from the two measurements. The median and standard deviation were also calculated for each group. Median is preferred to mean in order to exclude the extreme values. MAb treatment was administered by intraperitoneal injection twice a week during three weeks at 10 or 1 mg/kg doses. The cisplatin (Myland) treatment was administered by intraperitoneal injection once per week during three weeks at 1, 2.5 or 5 mg/kg doses. The product was prepared in accordance with the sponsor's guidelines, i.e. diluted in PBS. Mice were sacrificed when the tumours reached a maximum volume of 1600 mm^3. […] The t-test (two-tailed test) was performed on the tumour volume values (mm^3) measured on the day of sacrifice.

CK8 [2] = biological target: T1, CK8 (Homo sapiens, UniProt P05787); test: Immunohistochemistry staining on Colorectal PDX xenograft models; type: binding; set-up: from tissue; host or cells: pancreatic cancer PDX tumour tissue (PAN-001, PAN-003, PAN-004, PAN-035); key: 2+ for strong; 1+ for moderate intensity IHC staining
T1 sequence (P05787 1-483): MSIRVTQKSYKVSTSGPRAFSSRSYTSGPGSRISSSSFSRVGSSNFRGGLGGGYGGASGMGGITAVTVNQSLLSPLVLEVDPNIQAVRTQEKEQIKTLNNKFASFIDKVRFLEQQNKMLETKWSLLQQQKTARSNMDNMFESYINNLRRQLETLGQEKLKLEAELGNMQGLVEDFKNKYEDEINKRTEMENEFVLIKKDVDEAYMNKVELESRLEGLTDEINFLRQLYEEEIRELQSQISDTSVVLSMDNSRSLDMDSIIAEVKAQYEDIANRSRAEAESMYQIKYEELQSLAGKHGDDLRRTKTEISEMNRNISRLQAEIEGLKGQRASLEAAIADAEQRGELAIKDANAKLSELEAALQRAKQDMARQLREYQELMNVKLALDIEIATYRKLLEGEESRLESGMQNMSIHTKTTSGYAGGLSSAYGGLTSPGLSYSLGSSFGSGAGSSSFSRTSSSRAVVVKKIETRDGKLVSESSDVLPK
Protocol: (§1) This example describes methods to investigate on CK8 cellular expression at the cell surface by Immunohistochemistry. The antigen retrieval (AR) was performed following incubation at 95° C. during 30 min in Sodium Citrate (pH6.0). The MAb anti CK8 was incubated 1 hour at room temperature (RT). The secondary antibody as a goat anti human was incubated at RT during 1 hour then with a rabbit polyclonal anti FITC at RT during 30 min.
All of CRC PDX models expressed the HzR022 (D-A10) epitope detected by IHC. Different IHC scores were observed as 2+ for strong or 1+ for moderate intensity IHC staining.

CK8 [3] = biological target: T1, CK8; test: Immunohistochemistry staining on Pancreas PDX xenograft models; type: binding; set-up: from tissue; host or cells: pancreatic cancer PDX tumour tissue (PAN-001, PAN-003, PAN-004, PAN-035); conditions: for HZMR022/D-A10 IHC score: score according to membranous and cytoplasmic intensity
Protocol: as §1
Four PC PDX models were evaluated as PAN-001, PAN-003, PAN-004 and PAN-035.
All of PC PDX models expressed the HzR022 (D-A10) epitope detected by IHC. The IHC score was determined according the membranous and cytoplasmic intensity.

B1: HzR022 (D-A10): humanized anti-CK8 monoclonal antibody D-A10; VL SEQ ID NO: 14, VH SEQ ID NO: 15 (antibody, V domains shown)
VH: EVQLVESGGGLVQPGGSLRLSCAASGFTFSSYWMSWVRQAPGKGLVWVSDINSDGSSTKYADSVKGRFTISRDNAKNTLYLQMNSLRAEDTAVYYCIAHYSGGGFAYWGQGTLVTVSS
VL: DIVMTQAPLSLPVTPGEPASISCRSSKSLLYSNGYNYLYWFLQKPGQSPQLLIYYMSNLASGVPDRFSGSGSGTDFTLKISRVEAEDVGVYYCMQSLEYPFTFGQGTKLEIK
modifications: VHHzD-A10; VLHzD-A10
For B1, the “tumour growth control (tumour volume, FIG. 3)” value [1] was “did trigger tumour growth control”, the “HzR022 (D-A10) IHC score” value (CK8 [2]; CRC PDX model CR0004) was 2+ and the “HzR022 (D-A10) IHC score” value (CK8 [2]; CRC PDX model CR0012) was 2+. For the same molecule, the “HzR022 (D-A10) IHC score” value (CK8 [2]; CRC PDX model CR0029) was 2+, the “HzR022 (D-A10) IHC score” value (CK8 [2]; CRC PDX model CR0126) was 2+ and the “HzR022 (D-A10) IHC score” value (CK8 [2]; CRC PDX model CR0196) was 2+. The “HzR022 (D-A10) IHC score” value (CK8 [2]; CRC PDX model CR0205) was 1+, the “HzR022 (D-A10) IHC score” value (CK8 [2]; CRC PDX model CR0455) was 1+ and the “HzR022 (D-A10) IHC score” value (CK8 [2]; CRC PDX model CR1530) was 2+. For the same molecule, the “HzR022 (D-A10) IHC score” value (CK8 [2]; CRC PDX model CR3056) was 1+, the “HzR022 (D-A10) IHC score” value (CK8 [2]; CRC PDX model CR3150) was 1+ and the “HzR022 (D-A10) IHC score” value (CK8 [2]; CRC PDX model CR6254) was 2+. For the same molecule, the “Cytoplasmic Intensity” value (CK8 [3]; PC PDX model PAN-001) was 4, the “Membraneous Intensity” value (CK8 [3]; PC PDX model PAN-001) was 4 and the “HZMR022/D-A10 IHC score” value (CK8 [3]; PC PDX model PAN-001) was 16. The “Cytoplasmic Intensity” value (CK8 [3]; PC PDX model PAN-003) was 4, the “Membraneous Intensity” value (CK8 [3]; PC PDX model PAN-003) was 4 and the “HZMR022/D-A10 IHC score” value (CK8 [3]; PC PDX model PAN-003) was 16. The “Cytoplasmic Intensity” value (CK8 [3]; PC PDX model PAN-004) was 4, the “Membraneous Intensity” value (CK8 [3]; PC PDX model PAN-004) was 4 and the “HZMR022/D-A10 IHC score” value (CK8 [3]; PC PDX model PAN-004) was 16. The “Cytoplasmic Intensity” value (CK8 [3]; PC PDX model PAN-035) was 4, the “Membraneous Intensity” value (CK8 [3]; PC PDX model PAN-035) was 4 and the “HZMR022/D-A10 IHC score” value (CK8 [3]; PC PDX model PAN-035) was 16. The IHC score (CK8 [3]; all four PC PDX models (PAN-001, PAN-003, PAN-004, PAN-035), strong to very strong IHC staining) was 4.
